Substrate: O=C(O)c1cc(=O)[nH]c(=O)n1[C@@H]1O[C@H](COP(=O)(O)O)[C@@H](O)[C@H]1O
Assay: purified protein
Details: pH 7.1 (10 mM MOPS), 25 °C, I = 0.105 (NaCl)

B1: ScOMPDC (yeast orotidine 5′-monophosphate decarboxylase) (Saccharomyces cerevisiae S288C; A160S/C155S/N267D/Q215A/S154A/S2H/Y217F) (protein)
chain: MHKATYKERAATHPSPVAAKLFNIMHEKQTNLCASLDVRTTKELLELVEALGPKICLLKTHVDILTDFSMEGTVKPLKALSAKYNFLLFEDRKFADIGNTVKLQYSAGVYRIAEWADITNAHGVVGPGIVSGLKQAAEEVTKEPRGLLMLAELASKGSLSTGEYTKGTVDIAKSDKDFVIGFIAQRDMGGRDEGYDWLIMTPGVGLDDKGDALGAQFRTVDDVVSTGSDIIIVGRGLFAKGRDAKVEGERYRKAGWEAYLRRCGQQD
- Km: 1500 ± 50 µM

— PMC6317530
